For the experiment, the target named is T1, rat cytochrome P450 reductase (rat, UniProt P00388 1-678).
T1 sequence (looked up): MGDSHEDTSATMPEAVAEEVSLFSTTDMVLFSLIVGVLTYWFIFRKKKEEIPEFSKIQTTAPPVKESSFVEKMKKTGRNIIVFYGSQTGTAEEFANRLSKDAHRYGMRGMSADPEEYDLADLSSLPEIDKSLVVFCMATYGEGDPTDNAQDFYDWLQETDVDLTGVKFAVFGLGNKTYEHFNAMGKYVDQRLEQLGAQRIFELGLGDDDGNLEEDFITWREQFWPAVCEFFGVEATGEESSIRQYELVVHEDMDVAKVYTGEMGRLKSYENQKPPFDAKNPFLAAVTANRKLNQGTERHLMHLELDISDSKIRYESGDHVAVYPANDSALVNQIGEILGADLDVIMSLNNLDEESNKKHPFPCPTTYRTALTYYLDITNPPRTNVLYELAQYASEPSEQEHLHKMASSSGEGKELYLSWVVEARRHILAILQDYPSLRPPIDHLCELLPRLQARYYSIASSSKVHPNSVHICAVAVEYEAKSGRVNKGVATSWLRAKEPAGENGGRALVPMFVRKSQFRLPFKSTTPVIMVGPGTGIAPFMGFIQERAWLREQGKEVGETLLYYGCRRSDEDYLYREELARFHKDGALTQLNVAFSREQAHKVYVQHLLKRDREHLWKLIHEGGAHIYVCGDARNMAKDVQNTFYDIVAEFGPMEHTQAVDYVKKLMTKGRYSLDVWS
Briefly: SEC. (In general: SEC sorts molecules by how far they enter the pores of the column.)

B1: rabbit cytochrome P450 2B4 (enzyme, UniProt P00178 1-491, looked up)
chain: MEFSLLLLLAFLAGLLLLLFRGHPKAHGRLPPGPSPLPVLGNLLQMDRKGLLRSFLRLREKYGDVFTVYLGSRPVVVLCGTDAIREALVDQAEAFSGRGKIAVVDPIFQGYGVIFANGERWRALRRFSLATMRDFGMGKRSVEERIQEEARCLVEELRKSKGALLDNTLLFHSITSNIICSIVFGKRFDYKDPVFLRLLDLFFQSFSLISSFSSQVFELFPGFLKHFPGTHRQIYRNLQEINTFIGQSVEKHRATLDPSNPRDFIDVYLLRMEKDKSDPSSEFHHQNLILTVLSLFFAGTETTSTTLRYGFLLMLKYPHVTERVQKEIEQVIGSHRPPALDDRAKMPYTDAVIHEIQRLGDLIPFGVPHTVTKDTQFRGYVIPKNTEVFPVLSSALHDPRYFETPNTFNPGHFLDANGALKRNEGFMPFSLGKRICLGEGIARTELFLFFTTILQNFSIASPVPPEDIDLTPRESGVGNVPPSYQIRFLAR
Take B1: the binding result is on record as “binds”.

These data come from paper PMC10851674 (Analytical chemistry, 2022).
